According to paper PMC6096475, “Structure of the GH9 glucosidase/glucosaminidase from Vibrio cholerae” (Acta Crystallographica. Section F, Structural Biology …, 2018):

System: Cc1cc(=O)oc2cc(O[C@@H]3O[C@H](CO)[C@@H](O)[C@H](O)[C@H]3O)ccc12
Test: purified protein
Details: 20 mM sodium phosphate pH 6.5, 1 µM enzyme, temperature not stated

Substance: VC0615 (Vibrio cholerae O1 biovar El Tor str. N16961)
- Km: 768 µM
- kcat: 0.0217 s⁻¹
